The values that follow come from patent US20200024322A1 (Eli Lilly, published 2020).

Numbered stars: 1 amine (or outer) side, 2 acyl side, 3 side chain; on linkers, the order of the positions; unused ones are H or OH. Square brackets hold non-standard residues; d marks the D form. Side chains are listed from the residue outwards. Ends that are not written are not given here. * marks the point of attachment. C18 diacid = O=C(O)CCCCCCCCCCCCCCCCC(=O)*; αMePhe(2-F) = C[C@](N)(Cc1ccccc1F)C(=O)O; γGlu = O=C(O)[C@H](CCC(=O)[*:2])N[*:1]; αMeL = CC(C)C[C@](C)(N)C(=O)O; AEEA = NCCOCCOCC(=O)O; Aib = CC(C)(N)C(=O)O

For test [1], the target named is T1, human GLP-1 receptor (GLP-1R) (human), P43220.
T1 chain: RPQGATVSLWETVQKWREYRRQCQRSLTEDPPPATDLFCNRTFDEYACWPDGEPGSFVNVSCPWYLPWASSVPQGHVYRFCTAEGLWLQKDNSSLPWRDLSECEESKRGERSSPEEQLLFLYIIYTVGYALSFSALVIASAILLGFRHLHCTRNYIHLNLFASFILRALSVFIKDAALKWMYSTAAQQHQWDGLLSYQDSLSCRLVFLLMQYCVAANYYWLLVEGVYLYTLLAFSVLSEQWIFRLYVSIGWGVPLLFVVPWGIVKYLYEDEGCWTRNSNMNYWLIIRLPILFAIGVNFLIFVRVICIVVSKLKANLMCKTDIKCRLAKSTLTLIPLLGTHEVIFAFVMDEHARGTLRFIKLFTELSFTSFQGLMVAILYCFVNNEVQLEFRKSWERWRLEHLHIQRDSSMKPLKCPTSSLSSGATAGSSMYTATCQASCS
Put plainly: cell-based or functional assay.

Test [2] deals with T2, human gastric inhibitory peptide receptor (GIPR) (human), P48546.
T2 chain: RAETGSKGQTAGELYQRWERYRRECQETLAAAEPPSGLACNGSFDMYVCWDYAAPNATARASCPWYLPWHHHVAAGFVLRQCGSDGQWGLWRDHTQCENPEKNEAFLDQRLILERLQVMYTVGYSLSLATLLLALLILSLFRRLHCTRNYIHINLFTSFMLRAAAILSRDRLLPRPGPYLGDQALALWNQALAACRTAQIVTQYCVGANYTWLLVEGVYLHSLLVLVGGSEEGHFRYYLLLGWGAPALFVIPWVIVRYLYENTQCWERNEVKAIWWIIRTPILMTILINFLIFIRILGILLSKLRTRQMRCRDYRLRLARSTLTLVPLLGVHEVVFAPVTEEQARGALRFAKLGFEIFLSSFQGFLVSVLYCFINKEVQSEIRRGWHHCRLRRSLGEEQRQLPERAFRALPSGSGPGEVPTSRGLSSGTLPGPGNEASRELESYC
As to the kind of experiment: cell-based or functional assay.

For the molecule Y[Aib]EGT[αMePhe(2-F)]TSDHSI[αMeL]LDEK([AEEA-AEEA-γGlu-C18 diacid])AQ[Aib]HFI[dE]YLIEGG-NH2 (not fully specified) [Example 180], in test [1], the hGLP1R cAMP EC50 ratio was found to be 0.0212 and the hGLP1R cAMP Rel EC50 was determined as 2.16 nM. In addition, in test [2], the hGIPR cAMP EC50 ratio worked out at 0.133 and the hGIPR cAMP Rel EC50 was 0.79 nM.
On the same counts, the results for Y[Aib]EGT[αMePhe(2-F)]TSDHSI[αMeL]LDEK([AEEA-AEEA-γGlu-C18 diacid])AQ[Aib]HFI[dE]YLIEGGPSSG-NH2 (not fully specified) [Example 179] are 0.0169, 2.7 nM, 0.0575 and 1.83 nM.
